Results on 2 substances are retold here after article PMC7497807.

Some targets named below: BCOR (aa 1176–1225)-FITC (UniProt Q6W2J9); FITC-CBX8 A335V peptide; MBP-AF9.
Holding throughout (assay): fluorescence polarisation
On the technique in general: Polarisation of emitted light reports the rotation of a fluorescent probe.

Sequence of BCOR (aa 1176–1225)-FITC (Q6W2J9 1176-1225): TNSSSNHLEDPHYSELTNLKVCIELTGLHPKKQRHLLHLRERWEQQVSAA

For the substance MBP-AF9 (domain or fragment), the Kd (commonly the concentration at which binding is half-saturated) turned out to be 18 nM with BCOR (aa 1176–1225)-FITC and 12 nM with FITC-CBX8 A335V peptide.

Consider unlabeled CBX8 A335V peptide, for which, in the experiment with MBP-AF9, the 50% inhibitory concentration (IC50) (usually the midpoint of a concentration-inhibition curve) amounted to 96 nM.
